Assays:
[1] = molecular target: PP1183, putative phosphopantetheinyl transferase of Pseudomonas putida KT2440 (Pseudomonas putida KT2440); assay: cell-based or functional assay
[2] = molecular target: Sfp, phosphopantetheinyl transferase of Bacillus subtilis subsp. spizizenii ATCC6633 (Bacillus subtilis subsp. spizizenii ATCC6633); assay: cell-based or functional assay
[3] = molecular target: PcpS, phosphopantetheinyl transferase of Pseudomonas aeruginosa PAO1 (Pseudomonas aeruginosa PAO1); assay: cell-based or functional assay
PcpS = PcpS (Pseudomonas aeruginosa, UniProt Q9I4H2); assay: Carrier protein (CoA) competition assay with PcpS; assay type: biochemical, P. aeruginosa PAO1; details: competition with BpsA for limited CoA (250 nM), read-out: IC50 for carrier protein mediated inhibition of BpsA activation
Source text: (§1) Another aspect of the invention described is a CoA competition assay for PPTase characterization. Assays of this type consist of two phases. In the first phase is the competition phase in which apo-BpsA and a purified carrier protein (CP) to be characterized compete for a limited pool of CoA which is attached to either the CP to be characterized or apo-BpsA by a PPTase. During this first phase, only the substrates necessary for phosphopantetheinylation are present. Following the competition phase, the production phase is initiated. In the production phase, the substrates required for pigment synthesis by holo-BpsA (L-gln and ATP) are added to reaction vessels and the velocity (A590/s) of the resulting reaction measured. […]
(§2) One limitation of the approach outlined above for determination of PPTase kinetic parameters is that it only provides information about a PPTase of interest with a single carrier protein substrate (that of BpsA). […] Four carrier proteins were employed in assessed using this assay, these were: The peptide carrier protein of BpsA (bPCP), the peptide carrier protein of the first module of the Pseudomonas aeruginosa NRPS PvdD (pPCP), the peptide carrier protein of the Microcysitis aeruginosa NRPS/PKS MycG (mPCP) and the aryl carrier protein from Nostoc punctiforme protein HetM (npArCP). […]

Sfp = Sfp (Bacillus spizizenii, UniProt G4NQW2); assay: Carrier protein (CoA) competition assay with Sfp; assay type: biochemical, B. subtilis subsp. spizizenii ATCC6633; details: competition with BpsA for limited CoA (250 nM), read-out: IC50 for carrier protein mediated inhibition of BpsA activation
Source text: as §1, §2

PP1183 = PP1183 (Pseudomonas putida, UniProt Q88NM4); assay: Carrier protein (CoA) competition assay with PP1183; assay type: biochemical, P. putida KT2440; details: competition with BpsA for limited CoA (250 nM), read-out: IC50 for carrier protein mediated inhibition of BpsA activation
Source text: as §1, §2

Sfp, sequence (G4NQW2 entry or part of it): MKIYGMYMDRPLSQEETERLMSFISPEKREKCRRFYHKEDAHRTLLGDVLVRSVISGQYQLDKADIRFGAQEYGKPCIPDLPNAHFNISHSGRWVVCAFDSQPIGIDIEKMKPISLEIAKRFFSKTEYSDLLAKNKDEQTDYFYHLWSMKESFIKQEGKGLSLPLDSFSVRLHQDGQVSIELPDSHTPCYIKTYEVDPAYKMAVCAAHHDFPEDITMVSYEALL
PP1183, sequence (Q88NM4 entry or part of it): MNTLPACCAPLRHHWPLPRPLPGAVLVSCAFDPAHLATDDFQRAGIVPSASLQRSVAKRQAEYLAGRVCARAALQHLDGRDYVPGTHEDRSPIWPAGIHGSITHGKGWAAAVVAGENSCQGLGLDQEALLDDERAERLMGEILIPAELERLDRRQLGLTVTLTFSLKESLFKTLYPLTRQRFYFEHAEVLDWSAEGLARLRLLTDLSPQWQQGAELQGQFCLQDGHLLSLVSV
PcpS, sequence (Q9I4H2 entry or part of it): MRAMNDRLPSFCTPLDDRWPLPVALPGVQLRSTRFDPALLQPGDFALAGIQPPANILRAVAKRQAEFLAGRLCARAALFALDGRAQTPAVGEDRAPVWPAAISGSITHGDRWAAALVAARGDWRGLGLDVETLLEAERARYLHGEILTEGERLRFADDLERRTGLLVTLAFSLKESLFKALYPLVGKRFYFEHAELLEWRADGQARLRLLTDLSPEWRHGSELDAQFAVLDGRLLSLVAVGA

B1: The peptide carrier protein of BpsA (bPCP), purified recombinant His6 tagged (protein)
chain: FVAPRTETEKEIAAVWEKALRRENASVQDDFFESGGNSLIAVGLVRELNARLGVSLPLQSVLESPTIEKLARRLE
[1]
  IC50 (carrier protein competition with BpsA for limiting CoA): 300 nM
  kcat/Km (estimate derived from IC50) (Min^-1 · µM^-1): 3.88
[2]
  IC50 (carrier protein competition with BpsA for limiting CoA): 720 nM
  kcat/Km (estimate derived from IC50) (Min^-1 · µM^-1): 0.69
[3]
  IC50 (carrier protein competition with BpsA for limiting CoA): 710 nM
  kcat/Km (estimate derived from IC50) (Min^-1 · µM^-1): 7.77
PcpS
  IC50: 710 nM
Sfp
  IC50: 720 nM
PP1183
  IC50: 300 nM

— US20130260436A1, “Methods of Identifying and Characterizing Natural Product Gene Clusters” (Victoria LInk Limited, priority 2010, published 2013)
